Assay results taken from patent US20260242489A1 (HUAHUI HEALTH, published 2026).
Changes are numbered by the printed parent chain. In names and notes the source's numbering stands.

Assays:
[1] = target: T1, hEGFR ECR-His6-Avi-Biotin (human, UniProt P00533 25-642, biotinylated on the Avi tag using BirA ligase); assay: phage ELISA: biotinylated hEGFR ECR captured on streptavidin plate, phage display scFv titrated, anti-M13-HRP; pH 6.0
T1 construct: also called WT hEGFR ECR; human EGFR ECD; not shown: His6-Avi tag

[2] = target: T1, hEGFR ECR-His6-Avi-Biotin; assay: phage ELISA: biotinylated hEGFR ECR captured on streptavidin plate, phage display scFv titrated, anti-M13-HRP; pH 7.4
[3] = target: T1, hEGFR ECR-His6-Avi-Biotin; assay: IgG1 ELISA on hEGFR ECR, pH 6.5 and pH 7.4
[4] = target: T1, hEGFR ECR-His6-Avi-Biotin; assay: ELISA: hEGFR ECR on plate, IgG1 titrated, anti-hFc-HRP; pH 7.4 [table]
[5] = target: T1, hEGFR ECR-His6-Avi-Biotin; assay: ELISA: hEGFR ECR on plate, IgG1 titrated, anti-hFc-HRP; pH 6.5 [table]
[6] = target: T1, hEGFR ECR-His6-Avi-Biotin; assay: phage ELISA: hEGFR ECR on plate, phage display Fab titrated, anti-M13-HRP; EC50 at pH 7.4 over EC50 at pH 6.5 [table]
[7] = target: T2, mEGFR ECR (His6-Avi-tagged) (mouse, UniProt Q01279 25-644); assay: SPR (Biacore T200), mEGFR ECR analyte, steady-state affinity model
T2 construct: also called mouse EGFR; not shown: His6-Avi tag

[8] = target: T3, human EGFR, full-length, on A-431 cells or CT26-hEGFR cells (human, UniProt P00533 25-1210); assay: flow cytometry on CT26-hEGFR cells, pH 6.5
T3 construct: A-431 cells (own EGFR) and mouse CT26 cells transfected with human EGFR; the cell line is named under assay
Procedure: (§1) Antibody binding to cells was then assessed based on the fluorescence intensity for FITC.

[9] = target: T3, human EGFR, full-length, on A-431 cells …; assay: flow cytometry on CT26-hEGFR cells
Procedure: as §1

[10] = target: T3, human EGFR, full-length, on A-431 cells …; assay: flow cytometry on A-431 cells, pH 7.4
Procedure: as §1

[11] = target: T1, hEGFR ECR-His6-Avi-Biotin; assay: SPR (Biacore T200), antibody captured, hEGFR ECR analyte, steady-state affinity model, pH 7.4
Procedure: (§2) Kinetics analyses of the binding of anti-EGFR antibodies to the ECR of mouse and human EGFR were performed on a Biacore T200 instrument (Biacore, GE Healthcare). Anti-hFc Ab or protein A/G (Thermo Fisher Scientific) was covalently attached to the surface of a CM5 sensor chip using an amine coupling kit (GE Healthcare). […] Binding kinetics were evaluated using a 1:1 Langmuir binding model. The dissociation constant (KD) values were calculated with a steady-state affinity model using the Biacore T200 evaluation software.

[12] = target: T1, hEGFR ECR-His6-Avi-Biotin; assay: SPR (Biacore T200), antibody captured, hEGFR ECR analyte, steady-state affinity model, pH 6.5
Procedure: as §2

[13] = target: T2, mEGFR ECR (His6-Avi-tagged); assay: SPR (Biacore T200), antibody captured, mEGFR ECR analyte, steady-state affinity model, pH 7.4
Procedure: as §2

[14] = target: T3, human EGFR, full-length, on A-431 cells …; assay: flow cytometry on CT26-hEGFR cells, pH 7.4
Procedure: as §1

[15] = target: T3, human EGFR, full-length, on A-431 cells …; assay: flow cytometry on A-431 cells
Procedure: as §1

[16] = target: T2, mEGFR ECR (His6-Avi-tagged); assay: SPR (Biacore T200), antibody captured, mEGFR ECR analyte, steady-state affinity model, pH 6.5
Procedure: as §2

[17] = target: T1, hEGFR ECR-His6-Avi-Biotin; assay: SPR (Biacore T200), hEGFR ECR analyte, steady-state affinity model
Procedure: as §2

[18] = target: T3, human EGFR, full-length, on A-431 cells …; assay: flow cytometry on A-431 cells, pH 6.5
Procedure: as §1

[19] = target: T1, hEGFR ECR-His6-Avi-Biotin; assay: competition ELISA: hEGFR ECR on plate, IgG1 titrated in a mixture with EGF-mFc, bound EGF-mFc detected with anti-mFc-HRP; pH 6.5 [table]
[20] = target: T1, hEGFR ECR-His6-Avi-Biotin; assay: competition ELISA: hEGFR ECR on plate, IgG1 titrated in a mixture with EGF-mFc, bound EGF-mFc detected with anti-mFc-HRP; pH 7.4 [table]
[21] = target: T1, hEGFR ECR-His6-Avi-Biotin; assay: ELISA: hEGFR ECR on plate, IgG1 titrated, anti-hFc-HRP; pH 6.0 [right panel]
Source text: (§3) Then antibody-hEGFR binding was detected with an HRP-conjugated anti-hFc secondary antibody.

[22] = target: T1, hEGFR ECR-His6-Avi-Biotin; assay: ELISA: hEGFR ECR on plate, IgG1 titrated, anti-hFc-HRP; pH 7.4 [right panel]
Source text: as §3

B1: 11C04 (scFv, part only; not given: scFv linker, domain order, phage fusion, V domains shown, not shown: another chain or arm of the molecule; large carriers; small tags and cut ends)
VH: EVQLVQSGAEVKKPGASVKVSCKASGYTFTSYYMHWVRQAPGQGLEWMGIINPSGGSTSYAQKFQGRVTMTRDTSTSTVYMELSSLRSEDTAVYYCARDLEMAYYDILYGMDVWGQGTLVTVSS
VL: QSALTQPASVSGSAGQSITISCTGTTSDIGRYDYVSWYQQHPGQVPKLMIYDVSNRPSGVSDRFSGSKSGNTASLTISGLQTEDEADYYCSSYTTSGTRVFGGGTKLTVL
B1 was tested, and the EC50 (read off the curve) [1] was 1e+10 cfu/ml and the EC50 (read off the curve) [2] was 1e+10 cfu/ml.

B2: G532^V (human IgG1 form) (antibody, V domains shown)
VH: QVQLVQSGAEVKRPGSSVKVSCKASGGISDGSAISWVRQAPGQGLEWMGGIRWWGGITNYAQKFQGRVTITADESTSTAYMELSSLRSEDTAVYYCARDSSLGYYDYFDYWGQGTLVTVSS
VL: QPVLTQPPSVSAAPGQTARITCGGNNIGEKHVQWYQQRPGQAPVLVIYYDSTRPSGIPERFSGSNSGNTAALTINSVEAGDEADYYCQAWDDYDPVVFGGGTQLTVLG
notes: G532 with LCDR1 E32H and LCDR2 D52S, D53T
For B2, the “EC50 ratio (pH 7.4/pH 6.5)” value [3] was 1.64, the “fold lower binding pH-dependency than G532” value [3] was roughly 5 fold and the EC50 [4] was 0.517 nM. For the same binder, the EC50 [5] was 0.316 nM.

B3: WT G5V2 (phage display Fab form) (Fab, V domains shown)
VH: B2 VH with R52Y, W53F, W54F, G55N, I57N
VL: QPVLTQPPSVSAAPGQTARITCGGNNIGEKYVQWYQQRPGQAPVLVIYYDDDRPSGIPERFSGSNSGNTAALTINSVEAGDEADYYCQAWDDYDPVVFGGGTQLTVL
In the case of B3, the “EC50 ratio (pH 7.4/pH 6.5)” value [6] is reported as 1.21.

B4: G532 (human IgG1 form) (antibody, V domains shown)
VH: B2 VH
VL: B2 VL with H31E, S51D, T52D
With B4 the “EC50 ratio (pH 7.4/pH 6.5)” value [3] was 8.08, the “KD ratio (pH 7.4/6.5)” value [7] was 3.31 and the EC50 [4] was 5.58 nM. The EC50 [8] was 0.787 nM, the “EC50 ratio (pH 7.4/6.5)” value [9] was 19.4 and the EC50 [10] was 13.7 nM. The Kd [11] was 3900 nM, the Kd [12] was 294 nM and the Kd [13] was 1810 nM. For the same binder, the EC50 [14] was 15.2 nM, the “EC50 ratio (pH 7.4/6.5)” value [15] was 26 and the EC50 [5] was 0.69 nM. For the same binder, the Kd [16] was 547 nM, the “KD ratio (pH 7.4/6.5)” value [17] was 13.3 and the EC50 [18] was 0.528 nM. For the same binder, the IC50 [19] was 20.6 nM.

B5: G5V2 Y32H (phage display Fab form) (Fab, V domains shown)
VH: B2 VH with R52Y, W53F, W54F, G55N, I57N
VL: B3 VL with Y31H
notes: Kabat numbering (31st letter by plain count)
B5 was tested, and the “EC50 ratio (pH 7.4/pH 6.5)” value [6] was 0.61.

B6: G532^Ctrl (human IgG1 form) (antibody, V domains shown)
VH: B2 VH
VL: B2 VL with K30N
notes: G532^V with LCDR1 K31N; also called non-pH-dependent variant of G532
For B6, the “EC50 ratio (pH 7.4/pH 6.5)” value [3] was 0.759, the “KD ratio (pH 7.4/6.5)” value [7] was 0.586 and the EC50 [4] was 0.635 nM. For the same binder, the EC50 [8] was 1.25 nM, the “EC50 ratio (pH 7.4/6.5)” value [9] was 0.469 and the EC50 [10] was 0.554 nM. It also gave a Kd [11] of 243 nM, a Kd [12] of 406 nM and a Kd [13] of 743 nM. The EC50 [14] was 0.587 nM, the IC50 [20] was 61.8 nM and the “EC50 ratio (pH 7.4/6.5)” value [15] was 0.718. The EC50 [5] was 0.837 nM, the Kd [16] was 1270 nM and the “KD ratio (pH 7.4/6.5)” value [17] was 0.599. The EC50 [18] was 0.771 nM and the IC50 [19] was 39.5 nM.

B7: 11A10 (full-length human IgG1 form) (antibody, V domains shown)
VH: EVQLVQSGAEVKKPGESLMISCKGSGYSFTNHWIGWVRQMPGKGPEWMGIINPRDSDARYSPSFRGQVTFSVDRSTNTAYLQWTSLKPSDTGMYFCARRDIVVVPAATPSYYYYGMDVWGQGTTVTVSS
VL: DIQLTQSPSSLSASVGDSVTITCRPRQSSSRFVNWYQHKPGKAPKLLISNASDLQHGVPSRFSGRGAGTEFTLTIDSLQPDDVATYYCEQSYRFPHMFGQGTKVEIKR
B7 was tested, and the EC50 [21] was 1.36 nM and the EC50 [22] was 58.9 nM.

B8: 14C07 (phage display scFv form) (scFv, V domains shown)
VH: QVQLVQSGAEVKRPGSSVKVSCKASGGTFSSYAISWVRQAPGQGLEWMGGIIPIFGTANYAQKFQGRVTITADESTSTAYMELSSLRSEDTAVYYCARDSSSGWYDYFDYWGQGTLVTVSS
VL: QPVLTQPPSVSAAPGAMARITCESPDIGSKSVQWYQQRPGQAPILVIYYDDDRPSGIPERFSGSNSGNTAALTINWVEPEDEADYYCQAWDDSDPVVFGGGTQLTVL
With B8 the “EC50 (read off the curve)” value [1] was roughly 1e+11 cfu/ml.
